Experimental data from paper PMC4861830, “Isolation and Characterization of Three New Monoterpene Synthases from Artemisia annua” (Frontiers in Plant Science, 2016).

Substrate: CC(C)=CCC/C(C)=C/COP(=O)(O)OP(=O)(O)O
Assay: purified protein
Assay type: biochemical, Artemisia annua
Details: Mg2+ (5 mM MgCl2), 25 mM HEPES pH 7.0, 5 mM DTT, 30 °C, GPP 3-100 μM
[1] = Table 1 prints 19.74 (text and table disagree; printed kcat/Km 7.66 × 10^4 fits 19.47)

| Protein | Km | kcat | kcat/Km | Km [1] | kcat [1] |
| --- | --- | --- | --- | --- | --- |
| AaTPS6 (Artemisia annua) (protein, N-terminal 46-residue plastid signal peptide removed (before RR motif; full length 587 residues); pET-32a fusion tag kept; E. coli BL21(DE3); Ni-NTA) GRRSANYEPSLWSFDHVQSLSSKYTGKNYVSRADSLKKIVKTMIHEVGNPSTALELVDDLQRLGIWYHFEDEISNVLEMIYRDFYDNEDRCSKMDMNFKALSFRLLRQHGYHVPQEIFHNFKEKTQNLKPYLHEDMVVMLNIYEASYYSYEDESIMDDARDFTAKYLKENHDSIDESISSLVSHALEFPLHWRIPREEAKWFIEFYEKRSGRNPTLIELAKLDFNMVQSIHLEDLKHASRWWRNTCWDKELPFARDRLMENFLWTVGVNYLPRFSLGRRTLTKVNAMITTIDDVYDVFGTIDELEKFTEVTNRWDINAVEELPDYMQICFIAFYNSINEIAYNTLTDTKFLILQYLKKGWVDLCNSYLKEAQWYESGYVPTLEEYLENAYVSISAPVILTHVNFLTTITSKEEILQFMETSDNIVRYSSLILRLADDLGTSSLEMARGDVPKSIQCYMHESGASEDEARMHIKDLILETWKKFNKEREHVKSKIAREFTYCAMNLGRMAQFMYREGDGHGHLSDVTKSHVLSWLINPIQGM | 17.70 µM | 4.46 s⁻¹ | 252000 M⁻¹ s⁻¹ | – | – |
| AaTPS5 (Artemisia annua) (protein, N-terminal 57-residue plastid signal peptide removed (before RR motif; full length 602 residues); pET-32a fusion tag kept; E. coli BL21(DE3); Ni-NTA) IRRSAGYPPSLWPYERIQAINSIYTGEKYASRLETLKEEVRNMIYKENEKAENPLSTLNLVDDLQRLGIWYHFVDDINNVLDNVYNKYYKSPEKWNTLDLNLKALGFRLLRHNGYHITQDIFEDIQDETRIMGHTIEDTLGLLNLYEASYHSFEDENILDEARAFTKKYLQGSLGKIDDQYLSSLTSRALDMPLHWRIARVETIWFMEAYEKRSGMNPTVLDLAKLDFNMVQAVHQEDLKYASRWWRTTKWDDKLSFARDRLVENYMWTIGNSYRPQFTLLRRILTKVFAIITTVDDVYDVHGTLDELERFTDVISRWNIYAIEELPDYMKICFLGFYNSVNDMAYTTLTDTGFFILPYLQKAWEDLCKAYLVEARWYHTKYMPTFKEYLDIAEVSISVPLMLTHISFVMNVCSTEEVIQSMDKIKNLIRYSSQILRLADDLGTSSDEMARGDTPKSIQCYMHETGATEEEARAHVRSLIIKVWQKLNKERAGLKTTYLKEFGECAANFGRMAQFMYQVADGHGHNIDLTEAYVLSLVVNPIQGV | – | – | – | 19.47 µM | 1.49 s⁻¹ |
| AaTPS2 (Artemisia annua) (protein, N-terminal 46-residue plastid signal peptide removed (before RR motif; full length 586 residues); pET-32a fusion tag kept; E. coli BL21(DE3); Ni-NTA) VRRTANYEPTLWSYDHIQSLSSKYTGEEYAARANILKNSVKRLLGEVENSPSILELVNDLQRLGIYYHFEDEIRNALEMIYYKYYKTPDKWGKMDLNLTALGFRLLRQHGYQVPQEIFQNFLDNAQNLKPHLLEEIAGMLNLYEASYHAFEDETILDNARAFTTKYLKENLDKIDGHILSLVSHALEFPLHWRVPRVEAKWYIEVYEKKNGMNHILIELAKLDFDMVQAIHLEDLKHASRWWRNTNWDKKLSFARDRLVENFLWTIGFNYLPQFSHGRRTLTKVNALITTIDDVYDVFGTLDEIEQFTDATNRWDINSIEELPDYMKICFLGFYNTINEITYNALTNKRFIILPYLKKAWGDLFKSFVVEANWYQSGHIPTLEEYLENGCISISGPVILMHVHFITSISSAEEIMQCMEISKDIVRYSSLIFRLTDDLGTSSGEMERGDNPKSLQCYMHETGASEDEARIYMKSLIGETWKKLNKERTHASSDITREFIDFATNLVRMAQFMYGEGDVHGRPDVTKSHVLSLLFNPIQEI | 8.25 µM | 0.52 s⁻¹ | 63100 M⁻¹ s⁻¹ | – | – |
